Test [1] deals with T1, CASK CaMK domain (residues M1-A310) (human, UniProt O14936 1-310).
T1 sequence (looked up): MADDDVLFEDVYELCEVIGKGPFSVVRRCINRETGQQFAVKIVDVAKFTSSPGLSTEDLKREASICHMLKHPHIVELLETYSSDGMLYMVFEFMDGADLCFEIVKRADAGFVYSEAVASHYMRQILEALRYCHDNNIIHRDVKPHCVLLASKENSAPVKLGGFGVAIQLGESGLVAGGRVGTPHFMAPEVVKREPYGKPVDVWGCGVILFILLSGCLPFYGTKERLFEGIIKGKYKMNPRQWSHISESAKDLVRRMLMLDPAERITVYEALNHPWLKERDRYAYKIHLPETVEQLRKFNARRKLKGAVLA
As to the kind of experiment: SPR. In general terms: SPR reads the build-up and loss of mass on a sensor chip optically.

Test [2] has as its target T1, CASK CaMK domain (residues M1-A310). The test can be described thus: SEC. A general note: SEC sorts molecules by how far they enter the pores of the column.

B1: Caskin1 CID (residues I375 to G471) (domain or fragment, UniProt Q8WXD9 375-471, looked up)
chain: IWVLRKPFAGGDRSGSISGMAGGRGSGGHALHAGSEGVKLLATVLSQKSVSESGPGDSPAKPPEGSAGVARSQPPVAHAGQVYGEQPPKKLEPASEG
As to B1, the Kd in test [1] was found to be 7.5 ± 0.5 µM.

B2: Caskin1 CID-SAMs (residues I375 to L605), wild type (domain or fragment)
chain: not shown
Regarding B2, the binding result in test [2] is recorded as “binds”.

The term Kd denotes the concentration at which binding is half-saturated.

The record behind these values is publication PMC3158819 (Journal of molecular biology, 2011).
